In patent US20210238260:

Target: Factor X, P00742
Sequence (P00742 whole entry, looked up): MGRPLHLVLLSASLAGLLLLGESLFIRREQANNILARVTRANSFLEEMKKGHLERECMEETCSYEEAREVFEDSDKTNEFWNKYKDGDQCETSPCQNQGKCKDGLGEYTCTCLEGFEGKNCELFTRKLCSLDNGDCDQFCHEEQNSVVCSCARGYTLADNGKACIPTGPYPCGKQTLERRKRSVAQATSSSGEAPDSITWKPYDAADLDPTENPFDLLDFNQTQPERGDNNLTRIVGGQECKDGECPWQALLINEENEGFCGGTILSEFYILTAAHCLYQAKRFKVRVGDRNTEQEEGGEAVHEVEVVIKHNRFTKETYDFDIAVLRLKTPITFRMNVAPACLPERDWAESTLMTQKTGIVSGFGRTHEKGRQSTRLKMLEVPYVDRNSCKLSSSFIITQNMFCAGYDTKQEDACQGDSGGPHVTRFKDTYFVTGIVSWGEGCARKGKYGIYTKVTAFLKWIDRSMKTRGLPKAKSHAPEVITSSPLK

| Protein | % of WT kcat/KM [%] | kcat [s⁻¹] | kcat/KM [M⁻¹ s⁻¹] | KM (FX activation by FIXa in Xase complex with FVIIIa, PC/PS vesicles, Ca2+) [µM] | KM of FX activation by FIXa in the Xase complex (FVIIIa, PC/PS vesicles, Ca2+); fluorogenic FXa substrate [µM] |
| --- | --- | --- | --- | --- | --- |
| FIXa-Y155F/R318Y/R338E/T343R/E410N (protein) chain 1: YNSGKLEEFVQGNLERECMEEKCSFEEAREVFENTERTTEFWKQYVDGDQCESNPCLNGGSCKDDINSYECWCPFGFEGKNCELDVTCNIKNGRCEQFCKNSADNKVVCSCTEGYRLAENQKSCEPAVPFPCGRVSVSQTSKLTR chain 2: VVGGEDAKPGQFPWQVVLNGKVDAFCGGSIVNEKWIVTAAHCVETGVKITVVAGEHNIEETEHTEQKRNVIRIIPHHNYNAAINKYNHDIALLELDEPLVLNSYVTPICIADKEYTNIFLKFGSGYVSGWGRVFHKGYSALVLQYLRVPLVDRATCLESTKFRIYNNMFCAGFHEGGRDSCQGDSGGPHVTEVEGTSFLTGIISWGEECAMKGKYGIYTKVSRYVNWIKNKTKLT | 794 | 9.2 | 3.7e+08 | – | – |
| FIXa-R338E/T343R/R403E/E410N (protein) chain 1: YNSGKLEEFVQGNLERECMEEKCSFEEAREVFENTERTTEFWKQYVDGDQCESNPCLNGGSCKDDINSYECWCPFGFEGKNCELDVTCNIKNGRCEQFCKNSADNKVVCSCTEGYRLAENQKSCEPAVPFPCGRVSVSQTSKLTR chain 2: VVGGEDAKPGQFPWQVVLNGKVDAFCGGSIVNEKWIVTAAHCVETGVKITVVAGEHNIEETEHTEQKRNVIRIIPHHNYNAAINKYNHDIALLELDEPLVLNSYVTPICIADKEYTNIFLKFGSGYVSGWGRVFHKGRSALVLQYLRVPLVDRATCLESTKFRIYNNMFCAGFHEGGRDSCQGDSGGPHVTEVEGTSFLTGIISWGEECAMKGKYGIYTKVSEYVNWIKNKTKLT | 650 | 9.8 | 3e+08 | – | – |
| FIXa R318Y/R338E/R403E/T412A (protein) chain 1: YNSGKLEEFVQGNLERECMEEKCSFEEAREVFENTERTTEFWKQYVDGDQCESNPCLNGGSCKDDINSYECWCPFGFEGKNCELDVTCNIKNGRCEQFCKNSADNKVVCSCTEGYRLAENQKSCEPAVPFPCGRVSVSQTSKLTR chain 2: VVGGEDAKPGQFPWQVVLNGKVDAFCGGSIVNEKWIVTAAHCVETGVKITVVAGEHNIEETEHTEQKRNVIRIIPHHNYNAAINKYNHDIALLELDEPLVLNSYVTPICIADKEYTNIFLKFGSGYVSGWGRVFHKGYSALVLQYLRVPLVDRATCLESTKFTIYNNMFCAGFHEGGRDSCQGDSGGPHVTEVEGTSFLTGIISWGEECAMKGKYGIYTKVSEYVNWIKEKAKLT | 173 | – | 8e+07 | 0.0675 | – |
| FIXa R318Y/R338E/E410N/T412V (protein) chain 1: YNSGKLEEFVQGNLERECMEEKCSFEEAREVFENTERTTEFWKQYVDGDQCESNPCLNGGSCKDDINSYECWCPFGFEGKNCELDVTCNIKNGRCEQFCKNSADNKVVCSCTEGYRLAENQKSCEPAVPFPCGRVSVSQTSKLTR chain 2: VVGGEDAKPGQFPWQVVLNGKVDAFCGGSIVNEKWIVTAAHCVETGVKITVVAGEHNIEETEHTEQKRNVIRIIPHHNYNAAINKYNHDIALLELDEPLVLNSYVTPICIADKEYTNIFLKFGSGYVSGWGRVFHKGYSALVLQYLRVPLVDRATCLESTKFTIYNNMFCAGFHEGGRDSCQGDSGGPHVTEVEGTSFLTGIISWGEECAMKGKYGIYTKVSRYVNWIKNKVKLT | 571 | – | 2.6e+08 | 0.0236 | – |
| FIXa R318Y/R338E/T412A (protein) chain 1: YNSGKLEEFVQGNLERECMEEKCSFEEAREVFENTERTTEFWKQYVDGDQCESNPCLNGGSCKDDINSYECWCPFGFEGKNCELDVTCNIKNGRCEQFCKNSADNKVVCSCTEGYRLAENQKSCEPAVPFPCGRVSVSQTSKLTR chain 2: VVGGEDAKPGQFPWQVVLNGKVDAFCGGSIVNEKWIVTAAHCVETGVKITVVAGEHNIEETEHTEQKRNVIRIIPHHNYNAAINKYNHDIALLELDEPLVLNSYVTPICIADKEYTNIFLKFGSGYVSGWGRVFHKGYSALVLQYLRVPLVDRATCLESTKFTIYNNMFCAGFHEGGRDSCQGDSGGPHVTEVEGTSFLTGIISWGEECAMKGKYGIYTKVSRYVNWIKEKAKLT | 642 | – | 3e+08 | 0.0235 | – |
| FIXa K293E/R338E/R403E (protein) chain 1: YNSGKLEEFVQGNLERECMEEKCSFEEAREVFENTERTTEFWKQYVDGDQCESNPCLNGGSCKDDINSYECWCPFGFEGKNCELDVTCNIKNGRCEQFCKNSADNKVVCSCTEGYRLAENQKSCEPAVPFPCGRVSVSQTSKLTR chain 2: VVGGEDAKPGQFPWQVVLNGKVDAFCGGSIVNEKWIVTAAHCVETGVKITVVAGEHNIEETEHTEQKRNVIRIIPHHNYNAAINKYNHDIALLELDEPLVLNSYVTPICIADEEYTNIFLKFGSGYVSGWGRVFHKGRSALVLQYLRVPLVDRATCLESTKFTIYNNMFCAGFHEGGRDSCQGDSGGPHVTEVEGTSFLTGIISWGEECAMKGKYGIYTKVSEYVNWIKEKTKLT | – | – | – | – | 0.05 |
| FIXa Y155F/K228N/K247N/N249S/R318Y/R338E/R403E/E410N (protein) chain 1: YNSGKLEEFVQGNLERECMEEKCSFEEAREVFENTERTTEFWKQYVDGDQCESNPCLNGGSCKDDINSYECWCPFGFEGKNCELDVTCNIKNGRCEQFCKNSADNKVVCSCTEGYRLAENQKSCEPAVPFPCGRVSVSQTSKLTR chain 2: VVGGEDAKPGQFPWQVVLNGKVDAFCGGSIVNEKWIVTAAHCVETGVNITVVAGEHNIEETEHTEQNRSVIRIIPHHNYNAAINKYNHDIALLELDEPLVLNSYVTPICIADKEYTNIFLKFGSGYVSGWGRVFHKGYSALVLQYLRVPLVDRATCLESTKFTIYNNMFCAGFHEGGRDSCQGDSGGPHVTEVEGTSFLTGIISWGEECAMKGKYGIYTKVSEYVNWIKNKTKLT | 263 | – | 1.2e+08 | 0.0454 | – |
| FIXa R318Y/R338E/R403E/E410N/T412A (protein) chain 1: YNSGKLEEFVQGNLERECMEEKCSFEEAREVFENTERTTEFWKQYVDGDQCESNPCLNGGSCKDDINSYECWCPFGFEGKNCELDVTCNIKNGRCEQFCKNSADNKVVCSCTEGYRLAENQKSCEPAVPFPCGRVSVSQTSKLTR chain 2: VVGGEDAKPGQFPWQVVLNGKVDAFCGGSIVNEKWIVTAAHCVETGVKITVVAGEHNIEETEHTEQKRNVIRIIPHHNYNAAINKYNHDIALLELDEPLVLNSYVTPICIADKEYTNIFLKFGSGYVSGWGRVFHKGYSALVLQYLRVPLVDRATCLESTKFTIYNNMFCAGFHEGGRDSCQGDSGGPHVTEVEGTSFLTGIISWGEECAMKGKYGIYTKVSEYVNWIKNKAKLT | 538 | – | 2.5e+08 | 0.0344 | – |
| FIXa K293A/R338A/R403A (protein) chain 1: YNSGKLEEFVQGNLERECMEEKCSFEEAREVFENTERTTEFWKQYVDGDQCESNPCLNGGSCKDDINSYECWCPFGFEGKNCELDVTCNIKNGRCEQFCKNSADNKVVCSCTEGYRLAENQKSCEPAVPFPCGRVSVSQTSKLTR chain 2: VVGGEDAKPGQFPWQVVLNGKVDAFCGGSIVNEKWIVTAAHCVETGVKITVVAGEHNIEETEHTEQKRNVIRIIPHHNYNAAINKYNHDIALLELDEPLVLNSYVTPICIADAEYTNIFLKFGSGYVSGWGRVFHKGRSALVLQYLRVPLVDRATCLASTKFTIYNNMFCAGFHEGGRDSCQGDSGGPHVTEVEGTSFLTGIISWGEECAMKGKYGIYTKVSAYVNWIKEKTKLT | – | – | – | – | 0.0654 |
| FIXa-R318Y/T343R/R403E/E410N (protein) chain 1: YNSGKLEEFVQGNLERECMEEKCSFEEAREVFENTERTTEFWKQYVDGDQCESNPCLNGGSCKDDINSYECWCPFGFEGKNCELDVTCNIKNGRCEQFCKNSADNKVVCSCTEGYRLAENQKSCEPAVPFPCGRVSVSQTSKLTR chain 2: VVGGEDAKPGQFPWQVVLNGKVDAFCGGSIVNEKWIVTAAHCVETGVKITVVAGEHNIEETEHTEQKRNVIRIIPHHNYNAAINKYNHDIALLELDEPLVLNSYVTPICIADKEYTNIFLKFGSGYVSGWGRVFHKGYSALVLQYLRVPLVDRATCLRSTKFRIYNNMFCAGFHEGGRDSCQGDSGGPHVTEVEGTSFLTGIISWGEECAMKGKYGIYTKVSEYVNWIKNKTKLT | 125 | 5.3 | 5.8e+07 | – | – |
| FIXa N260S/R318Y/R338E/R403E/E410N (protein) chain 1: YNSGKLEEFVQGNLERECMEEKCSFEEAREVFENTERTTEFWKQYVDGDQCESNPCLNGGSCKDDINSYECWCPFGFEGKNCELDVTCNIKNGRCEQFCKNSADNKVVCSCTEGYRLAENQKSCEPAVPFPCGRVSVSQTSKLTR chain 2: VVGGEDAKPGQFPWQVVLNGKVDAFCGGSIVNEKWIVTAAHCVETGVKITVVAGEHNIEETEHTEQKRNVIRIIPHHNYSAAINKYNHDIALLELDEPLVLNSYVTPICIADKEYTNIFLKFGSGYVSGWGRVFHKGYSALVLQYLRVPLVDRATCLESTKFTIYNNMFCAGFHEGGRDSCQGDSGGPHVTEVEGTSFLTGIISWGEECAMKGKYGIYTKVSEYVNWIKNKTKLT | 114 | – | 5.3e+07 | 0.0724 | – |
| FIXa-Y155F/R318Y/T343R/R403E/E410N (protein) chain 1: YNSGKLEEFVQGNLERECMEEKCSFEEAREVFENTERTTEFWKQYVDGDQCESNPCLNGGSCKDDINSYECWCPFGFEGKNCELDVTCNIKNGRCEQFCKNSADNKVVCSCTEGYRLAENQKSCEPAVPFPCGRVSVSQTSKLTR chain 2: VVGGEDAKPGQFPWQVVLNGKVDAFCGGSIVNEKWIVTAAHCVETGVKITVVAGEHNIEETEHTEQKRNVIRIIPHHNYNAAINKYNHDIALLELDEPLVLNSYVTPICIADKEYTNIFLKFGSGYVSGWGRVFHKGYSALVLQYLRVPLVDRATCLRSTKFRIYNNMFCAGFHEGGRDSCQGDSGGPHVTEVEGTSFLTGIISWGEECAMKGKYGIYTKVSEYVNWIKNKTKLT | 571 | 8.8 | 2.6e+08 | – | – |
| FIXa R318Y/R338E/R403E/E410N/T412V (protein) chain 1: YNSGKLEEFVQGNLERECMEEKCSFEEAREVFENTERTTEFWKQYVDGDQCESNPCLNGGSCKDDINSYECWCPFGFEGKNCELDVTCNIKNGRCEQFCKNSADNKVVCSCTEGYRLAENQKSCEPAVPFPCGRVSVSQTSKLTR chain 2: VVGGEDAKPGQFPWQVVLNGKVDAFCGGSIVNEKWIVTAAHCVETGVKITVVAGEHNIEETEHTEQKRNVIRIIPHHNYNAAINKYNHDIALLELDEPLVLNSYVTPICIADKEYTNIFLKFGSGYVSGWGRVFHKGYSALVLQYLRVPLVDRATCLESTKFTIYNNMFCAGFHEGGRDSCQGDSGGPHVTEVEGTSFLTGIISWGEECAMKGKYGIYTKVSEYVNWIKNKVKLT | 342 | – | 1.6e+08 | 0.0483 | – |
